# In PMC10847046:
# Target: M66/StcE (Yersinia entomophaga (endogenous in the ΔLC derivative of MH96))
# Experiment: cryo-EM structure
substance,measurement,value
M66/StcE (enzyme),stoichiometry N,4
